Results as given in US20170174789A1 (Regeneron, published 2017).

Columns and labels:
[1] = target: T1, hTie2-His (human, UniProt Q02763 23-745); assay: blocking ELISA: antibody premixed with 0.8 nM biotin-hTie2-His, binding to plate-coated Bow-Ang2
T1 construct: also called ecto-Tie2 fused to 6xHis; biotin-Tie2-His
Experimental: Tie2 is known to interact with angiopoietins (Ang1, Ang2, Ang3 and Ang4). An initial set of experiments was therefore conducted to evaluate the ability of anti-Tie2 antibodies to block Tie2 binding to Ang2. In this first set of experiments, a quantitative blocking immunoassay was utilized. Briefly, solutions of 0.8 nM biotinylated ecto-Tie2 fused to 6×His (SEQ ID NO:2) were premixed with anti-Tie2 antibody ranging from ˜50 nM to 0 nM in serial dilutions. After a 1-hour incubation at room temperature, the amount of Tie2-His bound to plate coated Bow-Ang2 was measured by sandwich ELISA. Bow-Ang2 (SEQ ID NO:13), an Ang2 construct that comprises the Fc domain of hIgG1 flanked by one FD domain of Ang2 at both termini, was coated at 2 μg/ml on a 96 well microtiter plate and blocked with BSA. Plate-bound biotin-Tie2-His was detected using HRP conjugated streptavidin, and developed using BD OptEIA™ (BD Biosciences Pharmingen, San Diego, Calif.). Signals of OD₄₅₀ nm were recorded and data was analyzed using GraphPad Prism to calculate IC₅₀ values. IC₅₀s were defined as the amount of antibody required to reduce 50% of biotin-Tie2-His detectable to plate bound Bow-Ang2 ligand. In Table 9, an antibody is designated an “enhancer” if the addition of the antibody increases the amount of Tie2-His bound to the Bow-Ang2-coated surface relative to the no antibody control.

[2] = target: T2, hTie2-mFc (human); assay: Luminex beads, 25 ug/ml mAb
T2 chain: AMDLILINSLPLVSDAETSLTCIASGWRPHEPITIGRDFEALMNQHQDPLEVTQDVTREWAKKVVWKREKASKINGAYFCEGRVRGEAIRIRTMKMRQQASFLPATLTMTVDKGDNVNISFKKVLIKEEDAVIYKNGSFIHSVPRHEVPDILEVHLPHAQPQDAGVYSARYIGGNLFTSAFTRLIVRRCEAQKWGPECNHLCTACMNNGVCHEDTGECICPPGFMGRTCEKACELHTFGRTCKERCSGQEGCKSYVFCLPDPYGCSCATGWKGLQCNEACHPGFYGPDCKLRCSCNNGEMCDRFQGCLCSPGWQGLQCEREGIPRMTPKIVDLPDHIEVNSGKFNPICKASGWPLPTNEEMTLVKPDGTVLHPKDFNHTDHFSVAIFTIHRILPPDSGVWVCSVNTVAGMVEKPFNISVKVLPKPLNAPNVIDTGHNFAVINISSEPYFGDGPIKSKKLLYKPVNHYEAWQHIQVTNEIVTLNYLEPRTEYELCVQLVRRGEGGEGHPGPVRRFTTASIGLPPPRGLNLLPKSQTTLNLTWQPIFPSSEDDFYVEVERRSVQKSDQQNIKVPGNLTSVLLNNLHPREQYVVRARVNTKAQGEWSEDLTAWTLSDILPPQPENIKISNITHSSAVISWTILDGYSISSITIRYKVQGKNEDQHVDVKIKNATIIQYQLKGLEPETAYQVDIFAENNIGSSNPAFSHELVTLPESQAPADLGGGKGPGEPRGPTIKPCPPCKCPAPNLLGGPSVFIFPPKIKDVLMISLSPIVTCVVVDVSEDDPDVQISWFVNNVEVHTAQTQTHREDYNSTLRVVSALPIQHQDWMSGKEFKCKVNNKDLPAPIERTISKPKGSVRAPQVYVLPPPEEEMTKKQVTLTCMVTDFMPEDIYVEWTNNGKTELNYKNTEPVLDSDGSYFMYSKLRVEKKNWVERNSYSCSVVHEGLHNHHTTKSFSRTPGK
Experimental: (§1) For binding, 25 μl of anti-Tie2 antibody (25 μg/ml) was added to 75 μl of the above created Luminex bead mixture (3×10³ beads per construct) in binding buffer (PBS, 0.05% Tween 20, 1 mg/ml BSA, 0.05% sodium azide) into a 96 well filter plate (Millipore). Incubation was at room temperature (RT) for 90 min or overnight at 4° C. with shaking. The beads were washed 3× with washing buffer (PBS+0.05% Tween 20) resuspended in 100 μl binding buffer containing PE (phycoerythrine)-labeled anti human kappa or PE-labeled anti mouse Fab secondary antibody and incubated at RT for 45 min with shaking. Samples were washed 2× more and binding signal (MFI) for each bead was determined using a Luminex L200 or FLEXMAP3D instrument. Bead linked human Tie2 was used as positive control and bead linked human Tie1 was used to measure family cross-reactivity. In general MFI signals greater than 500 units represent significant binding.

[3] = target: T3, hTie2 (Ig3-FN) (human, UniProt Q02763 350-730); assay: Luminex beads, 25 ug/ml mAb
T3 construct: also called hTie2 (Ig3, FN)-hFc
T3 sequence (Q02763 350-730 limits assumed): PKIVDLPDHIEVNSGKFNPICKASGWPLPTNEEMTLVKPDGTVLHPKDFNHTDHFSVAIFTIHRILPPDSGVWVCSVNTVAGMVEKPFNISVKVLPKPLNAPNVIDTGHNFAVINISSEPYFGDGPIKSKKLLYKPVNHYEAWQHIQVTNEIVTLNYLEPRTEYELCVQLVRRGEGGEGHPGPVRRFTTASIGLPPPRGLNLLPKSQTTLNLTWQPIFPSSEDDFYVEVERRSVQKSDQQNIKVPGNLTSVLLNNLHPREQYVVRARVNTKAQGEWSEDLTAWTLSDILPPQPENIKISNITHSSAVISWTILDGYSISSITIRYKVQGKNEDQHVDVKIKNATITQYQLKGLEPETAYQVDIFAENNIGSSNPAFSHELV
Experimental: as §1

[4] = target: T4, hTie2 (FN) (human, UniProt Q02763 445-730); assay: Luminex beads, 25 ug/ml mAb
T4 construct: also called hTie2 (FN)-hFc
T4 sequence (Q02763 445-730 limits assumed): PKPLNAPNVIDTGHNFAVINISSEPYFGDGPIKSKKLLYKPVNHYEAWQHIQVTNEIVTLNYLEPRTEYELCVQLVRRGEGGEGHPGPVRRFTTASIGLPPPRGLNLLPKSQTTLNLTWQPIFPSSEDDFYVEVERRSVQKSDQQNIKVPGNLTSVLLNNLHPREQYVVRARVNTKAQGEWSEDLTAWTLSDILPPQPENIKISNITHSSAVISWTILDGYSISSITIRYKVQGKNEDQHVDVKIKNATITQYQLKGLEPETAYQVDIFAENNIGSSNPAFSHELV
Experimental: as §1

B1: H1H2339B (antibody, V domains shown)
VH: EVQLVESGGGLVQPGGSLRLSCAASGFTFSSYAMNWVRQAPGKGLEWVSSISGSGGNTYYADSVKGRFTISRDNSKNTLYLQLNSLRAEDTAVYYCAKDHSLSWYRNVFDIWGQGTMVTVSS
VL: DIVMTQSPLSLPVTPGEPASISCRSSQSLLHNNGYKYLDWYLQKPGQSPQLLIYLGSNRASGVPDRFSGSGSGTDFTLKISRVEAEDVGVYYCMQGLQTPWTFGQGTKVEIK
notes: Tested as H1H2339B (human IgG format, H1H prefix)
B1 gave an IC50 [1] of 189 pM, an MFI [2] of 2910 MFI and an MFI [3] of 3840 MFI. For the same binder, the MFI [4] was 4530 MFI.

B2: H1H2340B (antibody, V domains shown)
VH: EVQLVESGGGLVQPGGSLRLSCAASGFTFSRYWMSWVRQAPGMGLEWVANIKQDGSEKNYVDSVKGRFTVSRDNAKNSLYLQMNSLRAEDTAVYYCASAIFGVVITSYWGQGTLVTVSS
VL: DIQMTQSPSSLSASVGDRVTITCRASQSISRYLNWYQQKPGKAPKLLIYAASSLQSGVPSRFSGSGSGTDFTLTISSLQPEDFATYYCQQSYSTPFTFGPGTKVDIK
notes: Tested as H1H2340B (human IgG format, H1H prefix); also called HIH2340B
Binder B2 has an IC50 [1] of 1030 pM, an MFI [2] of 3010 MFI and an MFI [3] of 4600 MFI. For the same binder, the MFI [4] was 5150 MFI.
